This note sets out measurements from patent US20240043568A1 (KEYMED BIOSCIENCES, published 2024).

In assay [1] the target is T1, human GPC3 on cells (human, UniProt P51654 25-563).
T1 construct: whole, on cells; One molecule is used for both CHO-hGPC3 transfectants and GPC3+ HepG2 cells; The assay field names the cell; also called CHO-hGPC3 (clone 2B10); CHO-human GPC3
In words: flow cytometry on human GPC3-CHO stably-transfected cells, MFI.

Assay [2] addresses T2, recombinant cynomolgus monkey GPC3 full-length protein (cynomolgus monkey, UniProt A0A2K5VK50 24-558). In words: ELISA on coated recombinant cynomolgus monkey GPC3 protein, OD450 [panel Recombinant cynomolgus monkey GPC3 protein]. Background: In an ELISA, binding on a coated surface is turned into a signal by an enzyme label.
In assay [3] the target is T3, recombinant human GPC3 protein (human, UniProt P51654 25-563).
T3 construct: also called human GPC3 full-length protein; recombinant GPC3 protein
In words: BLI (Octet), antibody on Protein A probe. The method, then:
Using BLI technology (Octet), the antibody to be tested was captured on the Protein A probe. The binding capacity with human GPC3 protein (10 μg/ml as the initial concentration, 2-fold gradient, a total of 5 concentration points) was detected. The affinity constant KD was obtained according to the association and dissociation rates. The 49G8 humanized antibody binds to the recombinant GPC3 protein with high affinity. The affinity data is seen in Table 6.
On the technique in general: Biolayer interferometry detects binding as a change in optical thickness at a sensor tip.

Assay [4] concerns the target T3, recombinant human GPC3 protein. In words: ELISA on coated recombinant human GPC3 protein, OD450 [panel Recombinant human GPC3 protein].
The target is the same in assay [5]. In words: SPR (Biacore T200), antibody on Protein A chip, GPC3 as analyte. The procedure:
(§1) Humanized antibodies with higher affinity were selected and compared for binding to human and cynomolgus monkey GPC3. The humanized antibody h49G8VHv6VKv3 was captured by the Protein A chip (GE healthcare). The recombinant proteins of human and cynomolgus monkey GPC3 diluted in gradient (5 μg/ml as the initial concentration, 2-fold gradient, 5 concentration points in total) were flowed through the chip at a flow rate of 30 μL/min, with a binding time of 150 seconds and dissociation time of 600 seconds. The kinetic constant was fitted using Biacore T200 evaluation software with a Langmuir 1:1 kinetics model. The humanized antibody h49G8VHv6VKv3 binds to human and cynomolgus monkey GPC3 with high affinity. […] The affinity data is seen in Table 7.

The target in assay [6] is T2, recombinant cynomolgus monkey GPC3 …. The description is as above. The method, then: as §1
Assay [7] deals with T4, human CD3εγ-Fc heterodimer (human).
T4 construct: also called human CD3 εγ protein; recombinant CD3 εγ protein
T4 chain 1: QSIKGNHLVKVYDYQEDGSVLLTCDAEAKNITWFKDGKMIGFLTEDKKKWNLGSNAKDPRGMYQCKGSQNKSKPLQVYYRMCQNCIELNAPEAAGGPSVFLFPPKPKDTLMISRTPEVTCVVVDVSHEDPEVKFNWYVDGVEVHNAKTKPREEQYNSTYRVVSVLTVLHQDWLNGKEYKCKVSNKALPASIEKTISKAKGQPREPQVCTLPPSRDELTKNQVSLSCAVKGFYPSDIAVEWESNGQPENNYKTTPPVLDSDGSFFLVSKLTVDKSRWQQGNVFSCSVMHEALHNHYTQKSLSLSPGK
T4 chain 2: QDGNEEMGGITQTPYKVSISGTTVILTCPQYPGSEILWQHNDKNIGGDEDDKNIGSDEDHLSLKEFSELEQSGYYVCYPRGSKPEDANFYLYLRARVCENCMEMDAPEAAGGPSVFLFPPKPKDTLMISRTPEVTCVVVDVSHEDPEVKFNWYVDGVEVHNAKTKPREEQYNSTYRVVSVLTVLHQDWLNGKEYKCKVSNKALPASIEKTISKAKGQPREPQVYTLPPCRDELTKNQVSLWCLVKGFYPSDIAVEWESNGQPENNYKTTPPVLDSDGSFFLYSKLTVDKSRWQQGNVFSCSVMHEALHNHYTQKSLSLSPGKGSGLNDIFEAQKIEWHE
In words: ELISA on coated human CD3εγ protein, A450 [panel Human CD3 εγ dimer]. The method, then: (§2) Human CD3 εγ protein and monkey CD3 εγ protein were coated separately overnight at 4° C. After blocking with 2% skim milk, different dilutions of CD3 antibody were added to each well and incubated for 1 hour. The secondary antibody HPR-labeled goat anti-human IgG Fc was added. After being developed by the TMB solution. The reaction was stopped with the concentrated sulfuric acid and the absorbance was read at 450 nm.

The target of assay [8] is T5, human CD3 on T cells (human, UniProt P07766 23-207).
T5 construct: whole, on cells; The target is the native CD3 complex on cells; The recombinant antigen used elsewhere is the εγ heterodimer; also called CD3 on Jurkat cells; CD3 on human peripheral blood CD4+ and CD8+ T cells
The experiment in a line: flow cytometry, Jurkat cells. The procedure: Jurkat cells in the logarithmic growth phase were taken, blocked with 3% BSA for 30 min, and added to 96-well U-plate at 5×10⁴ cells per well. The supernatant was discarded after centrifugation. 50 μL of gradient diluted antibody was added (antibody concentration: from 30 ng/mL, 3-fold dilution for 5 gradients) per well, and incubated at 4° C. for 1 hour. […] After washing, 50 μL PBS was added per well to perform resuspending for FACS (iQue, intellicyt) assay (the results are seen in FIG. 13, and Table 10).
For orientation: Flow cytometry measures light scatter and fluorescence of single cells or particles in a stream.

Assay [9] concerns the target T4, human CD3εγ-Fc heterodimer. The experiment in a line: ELISA, coated human CD3εγ protein. The method, then:
Human CD3 εγ protein was coated overnight at 4° C. After blocking with 2% skim milk, different dilutions of CD3 antibodies was added to each well and incubated for 1 hour. The secondary antibody HPR-labeled goat anti-human IgG Fc was added. After being developed by the TMB solution, the reaction was stopped with the concentrated sulfuric acid, and the absorbance was read at 450 nm (the results are shown in FIG. 12 and Table 8).

Assay [10] has as its target T6, cynomolgus monkey CD3εγ-Fc heterodimer (cynomolgus monkey).
T6 construct: also called monkey CD3 εγ protein
T6 chain 1: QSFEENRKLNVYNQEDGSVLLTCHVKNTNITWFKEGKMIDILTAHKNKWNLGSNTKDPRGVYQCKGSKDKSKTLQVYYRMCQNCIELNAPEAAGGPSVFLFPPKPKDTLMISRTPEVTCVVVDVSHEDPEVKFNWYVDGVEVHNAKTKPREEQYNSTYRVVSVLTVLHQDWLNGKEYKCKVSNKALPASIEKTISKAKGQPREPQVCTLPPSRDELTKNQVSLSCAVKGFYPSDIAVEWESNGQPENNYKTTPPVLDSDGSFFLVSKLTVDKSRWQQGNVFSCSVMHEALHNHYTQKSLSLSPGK
T6 chain 2: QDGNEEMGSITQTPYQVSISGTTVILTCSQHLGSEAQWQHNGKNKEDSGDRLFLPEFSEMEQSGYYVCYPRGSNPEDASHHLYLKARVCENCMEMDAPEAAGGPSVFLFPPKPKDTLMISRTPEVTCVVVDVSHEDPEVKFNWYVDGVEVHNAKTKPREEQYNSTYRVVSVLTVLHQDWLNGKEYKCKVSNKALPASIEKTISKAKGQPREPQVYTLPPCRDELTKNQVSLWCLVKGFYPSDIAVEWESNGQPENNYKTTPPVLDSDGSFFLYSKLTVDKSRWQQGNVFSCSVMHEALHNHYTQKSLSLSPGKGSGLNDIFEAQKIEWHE
The experiment in a line: ELISA on coated monkey CD3εγ protein, A450 [panel Monkey CD3 εγ dimer]. The method, then: as §2

B1: h49G8VHv6VKv3 (antibody, V domains shown)
VH: QVQLVQSGAEVKKPGSSVKVSCKASGYTFADYEIHWVRQAPGQGLEWMGAIHPGSGGTAYAQKFQGRVTLTADESSTTAYMELSSLRSEDTAVYYCTRYYSFAYWGQGTLVTVSS
VL: DVVMTQSPLSLPVTPGEPASISCRSSQSIVHSNGNTYLEWYLQKPGQSPQLLIYKVSNRFSGVPDRFSGSGSGTDFTLKISRVEAEDVGVYFCLQVTHVPLTFGQGTKLEIK
notes: Humanized 49G8
With B1, the “EC50 (read off the curve)” value is around 2 nM in assay [1], around 0.03 nM in [2] and around 0.03 nM in [4]. The Kd amounted to 1.42 nM in [3], 1.39 nM in [5] and 2.1 nM in assay [6]. The koff in [3] amounted to 0.000134 s⁻¹; in assay [5] it was 0.000351 s⁻¹; in assay [6], 0.00025 s⁻¹. Also, the kon in assay [3] was determined as 94800 M⁻¹ s⁻¹; in [5], 253000 M⁻¹ s⁻¹; in assay [6], 119000 M⁻¹ s⁻¹.

B2: h49G8VHv6VKv4 (antibody, V domains shown)
VH: QVQLVQSGAEVKKPGSSVKVSCKASGYTFADYEIHWVRQAPGQGLEWMGAIHPGSGGTAYAQKFQGRVTLTADESSTTAYMELSSLRSEDTAVYYCTRYYSFAYWGQGTLVTVSS
VL: DVVMTQSPLSLPVTPGEPASISCRSSQSIVHSNSNTYLEWYLQKPGQSPQLLIYKVSNRFSGVPDRFSGSGSGTDFTLKISRVEAEDVGVYFCLQVTHVPLTFGQGTKLEIK
notes: Humanized 49G8
Consider B2, for which the 50% effective concentration (EC50 (read off the curve)) in assay [1] was around 2 nM; in assay [2], around 0.03 nM; in assay [4], around 0.03 nM. For the same molecule, in assay [3], the Kd turned out to be 2.28 nM. In addition, the koff in [3] was 0.000205 s⁻¹. Also, in assay [3], the kon was found to be 89900 M⁻¹ s⁻¹.

B3: h49G8VHv6VKv6 (antibody, V domains shown)
VH: QVQLVQSGAEVKKPGSSVKVSCKASGYTFADYEIHWVRQAPGQGLEWMGAIHPGSGGTAYAQKFQGRVTLTADESSTTAYMELSSLRSEDTAVYYCTRYYSFAYWGQGTLVTVSS
VL: DVVMTQSPLSLPVTPGEPASISCRSSQSIVHSNANTYLEWYLQKPGQSPQLLIYKVSNRFSGVPDRFSGSGSGTDFTLKISRVEAEDVGVYFCLQVTHVPLTFGQGTKLEIK
notes: Humanized 49G8
As to B3, the 50% effective concentration (EC50 (read off the curve)) in assay [1] was around 2 nM. In assay [2], the “EC50 (read off the curve)” value is around 0.03 nM. Also, in assay [3], the Kd is 2.38 nM, the koff is 0.00022 s⁻¹ and the kon was found to be 92400 M⁻¹ s⁻¹. In assay [4], the “EC50 (read off the curve)” value is around 0.03 nM.

B4: h49G8VHv6VKv5 (antibody, V domains shown)
VH: QVQLVQSGAEVKKPGSSVKVSCKASGYTFADYEIHWVRQAPGQGLEWMGAIHPGSGGTAYAQKFQGRVTLTADESSTTAYMELSSLRSEDTAVYYCTRYYSFAYWGQGTLVTVSS
VL: DVVMTQSPLSLPVTPGEPASISCRSSQSIVHSNTNTYLEWYLQKPGQSPQLLIYKVSNRFSGVPDRFSGSGSGTDFTLKISRVEAEDVGVYFCLQVTHVPLTFGQGTKLEIK
notes: Humanized 49G8
For B4, the “EC50 (read off the curve)” value in [1] is around 2 nM. In addition, in [2], the “EC50 (read off the curve)” value is around 0.03 nM. In [3], the equilibrium dissociation constant (Kd) is 2.15 nM, the koff was found to be 0.000193 s⁻¹ and the kon was 90000 M⁻¹ s⁻¹. Also, the “EC50 (read off the curve)” value in assay [4] was around 0.03 nM.

B5: aCD3-hVH9/VL2 (antibody, V domains shown)
VH: EVQLVESGGGLVQPGGSLRLSCAASGFTFNTYAMNWVRKAPGKGLEWVGRIRSKYNNYATYYADSVKDRFTISRDDSKNSLYLQMNSLKTEDTAVYYCVRHGNFGNSYVSWFAYWGQGTLVTVSS
VL: QAVVTQEPSLTVSPGGTVTLTCRSSTGAVTTSNYANWVQEKPGQAPRGLIGGTNKRAPWTPARFSGSLLGGKAALTLSGAQPEDEAEYYCALWYSNLWVFGGGTKLTVL
notes: Human IgG4, lambda
As to B5, the “EC50 (read off the curve)” value in assay [7] and in [10] was around 0.04 ng/mL each time. Further, the values for the EC50 in assay [8] and in [9] were 25 nM and 0.44 nM, respectively.

B6: aCD3-hVH8/VL1 (antibody, V domains shown)
VH: EVQLVESGGGLVQPGGSLRLSCAASGFTFNTYAMNWVRKAPGKGLEWVGRIRSKYNNYATYYADSVKDRFTISRDDSKNSLYLQMNSLKTEDTAVYYCARHGNFGNSYVSWFAYWGQGTLVTVSS
VL: QAVVTQEPSLTVSPGGTVTLTCRSSTGAVTTSNYANWVQQKPGQAPRGLIGGTNKRAPWTPARFSGSLLGGKAALTLSGAQPEDEAEYYCALWYSNLWVFGGGTKLTVL
notes: Human IgG4, lambda
Take B6: the EC50 was found to be 15 nM in [8] and 0.65 nM in assay [9].

B7: aCD3-hVH9/VL1 (antibody, V domains shown)
VH: EVQLVESGGGLVQPGGSLRLSCAASGFTFNTYAMNWVRKAPGKGLEWVGRIRSKYNNYATYYADSVKDRFTISRDDSKNSLYLQMNSLKTEDTAVYYCVRHGNFGNSYVSWFAYWGQGTLVTVSS
VL: QAVVTQEPSLTVSPGGTVTLTCRSSTGAVTTSNYANWVQQKPGQAPRGLIGGTNKRAPWTPARFSGSLLGGKAALTLSGAQPEDEAEYYCALWYSNLWVFGGGTKLTVL
notes: Human IgG4, lambda
With B7, the figures for the EC50 in assay [8] and in [9] were 7 nM and 0.49 nM, respectively.

B8: aCD3-hVH1/VL5 (antibody, V domains shown)
VH: EVQLVESGGGLVQPGGSLRLSCAASGFTFNTYAMNWVRQAPGKGLEWVSRIRSKYNNYATYYADSVKDRFTISRDDSKNTLYLQMNSLRAEDTAVYYCVRHGNFGNSYVSWFAYWGQGTLVTVSS
VL: QAVVTQEPSLTVSPGGTVTLTCRSSTGAVTTSNYANWVQEKPGQAPRGLIGGTNKRAPWTPARFSGSLLGGKAALTITGAQAEDEAEYYCVLWYSNLWVFGGGTKLTVL
notes: Humanized CD3 antibody with human IgG4 CH1-CH3 and a lambda light chain constant region
For B8, the 50% effective concentration (EC50) in assay [8] is 10 nM; in assay [9], 0.6 nM.

For orientation: EC50 (read off the curve) means the concentration that produces a half-maximal response. By Kd is commonly meant the equilibrium constant for the complex coming apart. One may read the koff as the first-order rate constant of dissociation. For orientation: kon means the rate constant with which the complex forms. Broadly, the EC50 is the concentration that produces a half-maximal response.
